# Source: the NTF2 design screens of Basanta et al. (2020)
# Assay: protease stability score; higher = more stable; yeast display proteolysis, trypsin and chymotrypsin;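 also: log10 excess protease needed over predicted unfolded state with 0 meaning unfolded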
row,Sequence,protease stability score
1,DQHVEDVARKFINAMQTGDPDRLKELFDPNARQQVGDTVVTGREHAAKKWKEWVDEMEVHVQLRSIDVRGDKATLRFKLEVRVNGKPSQQDVTMVIHMHNGRAVDVKLSIDERDKKEIDS,1.42
2,DQKDAKRATEILKNLQEGDWSEVVRQADPNAEIKVGDKVYNGMEHYAEHMHRKVEHSRIRIEVETVKDHNGVIHIKFHIEYKVNGHPRSNTQNINFYLNNGKVRSIDVQVPEEDLEKEHK,0.252
3,DQKKLKEQIKELWDALRTGDPQRAADLADPNARIQVGDKEITGREKFREHVKENKERIDRFTINDFKVQGDKARVDFHYEVNGQHRRVDATIVMRNGHIVSAQFDSQ,0.717
4,DQKKQQEVLEQWSKNDPRDLRKQADKDVRVQIGDTTYHGREDAQDALYTLAKRVDHFKYQHIETEGDHIRVDLVVNVNGREYQLTFEAQFHNGRLKTLEMQVRDEDQHKRLQEQLD,-0.22
5,DQKVNEFFKHVVKVEENGDTDKYRDNFDKDARAVYGDKRVTGNDELADTMRRTRHDMKYDVRSMDVQVRNGRVTVDVKVDVRVDGKPHSLKETIEMEVDNGKVKEVRVDFDPDQRRKVER,-0.188
6,DQNDRAEEFFKHWQRILTKNDPDEARKQMDKDVNVVYGDKRYHGREEVVKYLRDNMDRVDSIRVKLDDFKVDNGKATFHARFRQTHNGKDEQHNVVIVAQFKNGKLRAQSYHES,1.01
7,DQQDVDRFTEFLEAVERGDEDRLRELMDKDAKQKVGDKTIEGSEKQVNELNDRARRMRIVLEVHDVKVHNGRLEARADLLVNVNGQPVRDDVVVRVQVHNGKITHVEMHFPEEFKRQMRR,0.858
8,DQQHTASKVLSDMVKAIQDGDEDHISEQADENVKIRIGDKEYHGKENARRMLKEIQHQVDHISVEVKSVSSHNGRVNVRAEVQMRFNGRSTSYDVTAIFRYNNGQLRLYSVSAR,0.242
9,DQQKEAEKFARDMRRALDTGDERDVANLFPPDAKLRYGDKSFHGMDDIFKWVVTVLRQADHIHFQVRSVRDQGDKADIEFELRYDVNGQDRSRIFHAEVRHNGDNVQVEMNVEK,0.326
10,DQQTDAKEHAETVNKVLTHNDPNKLRELFDEDARMRVGDKEYRGQEQVDHVLKEIADRVDHVDVKLESVSLENGSVKVVIRAVFDDNGRKNDVHIDLVAVIDNGDLYIKEIRFE,0.301
11,DQRDLEHVNHVLQTGDPDQFRDLVDPNARIRVGDKTIHGRENVLTKYRRLMEQADHLQIDSIRNHGEFVVFDFRMTVNGRQVDAEVNIHVKDGQIKEIEIRFRSEEQEDRWRKQAD,1.42
12,DQRDQRKANEIIKTNDESKLAKQADKDARLVVGNKEYHGKEQVQHFADQLEKMFDHLEITHYDSHGENFNVVAVMDVNGQRVQYYWRFRVHNGQFKYIEFRARDEETQKTIHRLLG,0.606
13,DQRDVEKIATKLSEVVRTGDPHEFAKMADPNAKVEVGDKSWRGHEEIRDWLKQITDEADSIHVDSVTAQGDKIDMTITVDFNGKRVQFDIKIQMENGRIKKMKLDPDQQRKLER,1.04
14,DQRDVKKAEHLLRILETGNESELKKMMDPNARARVGDTTYHGMDDFVRKLTHMRDRAKFEIKEYSATDHNGHIRVHVRREVNFNGRPDRVSFIVRFDIENGKVRSVIFNLPRELLEREKK,0.429
15,DQREIVTKILRDFVKAFKTGDQDKYEKLVDKDVEYNIGDKTYHGREEAKKLFRELVKQVDHYSVHYKSISVRNGRAKVEAIQYYKHDGRTYHNKVSYTFRIQGDKIRMQDATFS,0.602
16,DQRERQEHAEHFNRVLQTNDPDRIKKLFDPNAKLQIGDSTFTGREDIDDAAKELKEQADHITVDRVHVHGNKVTLRFVMNVDGKSADATVTMIVKNGRAKEVHFDPRLEEQIKK,-0.407
17,DQRERVKKLFDRFQHNIKHGDKSKATNQFPPDVTMSIGDEDLHGRDAAKRYADNVANNADRFHHEIQDYKQKGNNANLRVKIVLNHNGTNHSHEADWVAVVHNGQARLKEVKFD,-0.078
18,DQRLWERFVKDLEENDEKSWQDLVDKDAKVEVGDTSYQGREHALTAIQKWVHQVDHVEIKSYRIHGDNVQIRMEVVINGRKMQVTVQAHLHNGKMKNIHMEATDRHVVEKLRELIS,0.039
19,DQRTREKVAEDIDNNDPQKLQDQADENVRVEYGNKVVHGREQMQEWARSLKDDVDSLEVDHVELDGDKIDARVNFNVNGRRVVFTIEADAHNGTIQRLRMTVTSEEQDTHMKQAAN,-0.209
20,DQSELRDFVEEFLEIFRHGNEDDARRLVDKDATAKVGDKTYNGEEQVLDFLKQLRNRADHVQIDTFRVEGDKMEAHMRLNVNGKTVQVVIQAEVRNGRIKHFRMDPNDLRKLEK,0.657
21,DQTALKVFKEYLEVVLNGDEHEAVELVDKDVRMNVGDKRWHGQEHIEREIRNQTRHSRLDYDHVRFEDDGDKAVFKRTVRFTHNGKPDSSRNVMHATADNGRIKSMKVEDDR,-0.334
22,DQTDEAEKWMEHITRVLHHNDTDQMLELADENVKIDIGDKTYHGREQFSQLLRDIAERVDHFSQRIDSIRVNGDKVRIDFKNVLDHNGRKHSQQVVVEINRTNGQWRLKSLHKK,0.151
23,DRDDFRRVIHEVQKALKHGDREQLRRLLDENAKVKVGDKEYQGDERAVKVMTTIANKADRMEYKDIHLHGDSVYINVVLNHNGKKDTVVWVIAVNNGKVQFFAQETR,1.01
24,DRDEVHHLHELYKAIEDGDDKKAQDLMDENAKARIGDKHFRGMQHFVETLKKEKDHMRVKIDNMRFTERPNRVVVNIEVKRSNNGEPESEVYRAFADAHNGKFVNLVIEHNQ,-0.056
25,DRDKERKVIEKLMNALQNNDENQIRKLIDPNARLVYGDKELHGREEVVKFLVTLLNQVDRIEYKSYDFHNGHANIDFTLRFNGQNATFTMEIRVKNGRVDHITLDPQQINRMNS,0.885

row,Sequence,protease stability score
1,DRDLNRHVKRFMDIIQNGDPDKAMEMVDPNVEFHVGDKRVHGQEELRELIKKEHDEQRKEIDDMRYDDRGSKAKINIEVRVEHNGRPNTVREDWNVEAKNGKIKRMNAKVDQ,-0.495
2,DRDQEDSFAKKVADVIQTGNPDDMRKLADEDARVDVGDKQYTGREHVDEAVENERKRIDHQQINSFSVNNGQIHATVSYVHNGQTHRFVVNVEIHNGHIKRARWQSK,0.273
3,DREAKKRADQYMEVIQNGDPEKFKHQADENVRVEVGNHEYHGRESMAKELKKRRDEIRIDIRRYSIDNQGEKVRIEVDAVAQINGRPRTYSYVFEMTFQNGRIKKFTLQISEDDEQNLKS,0.014
4,DREAKNVFEKLTKAFETGNEDDMRKLLDEDVRFNIGDREVHGREQAVEDLKRKRTQMRVDIHHVDQQNEPNRLSVNVRMVVEHNGRPRDVQRHAVFDVHNGRIKSVKEKDRQ,-0.238
5,DREDESELAMRAAVNAATGNEDEVSKNADPNVRAIYGDKNYDGTENMKDVIRQVRERIDHIELKSFEQHGDHAVARAEAKHNGDESTLVVTARAENGRVKSMRFEIR,-0.275
6,DREDHEHARTVFHNLQTGDFEEVKSLLDKNAKLTVGDRVLEGRDEIARQIRNELEEIRVEYVSVTFTVEGDKAQVHMVFKAEWNGNPADVRNVLRISQHNGRIKTMFIQISESQLEEYNR,0.287
7,DREDLAREMVERLEDIMKHNNEKELVNQMDENVRMTIGDKEYEGREAATKEAHDLFRRADHLRLSVETFNVQGDKAVITFQVVFNHNGRKSHDRVILDFRISGDKVKLVSQTKG,0.509
8,DREDNEQVKKILETNDFHRLAEQADKDAKAVVGEKRYHGREHVREALLRLQKQADHLEIDSMDTSGDKVVMRAKLKINGKTMDVTFDVVVHNGRLQHFEMSATTEDDERIQRTANS,0.743
9,DREDQEEVARHLVEVLERGDPQKMLELADPNVRAEVGDKRYHGREDLKSIMDELSRQVDRIQVVHLDVKGNTVRVTVKNRVNGVVVDLVIIFHFRNGKLRDVTIDARNEEQLKKREG,0.754
10,DREDTAREAAHEAIKIWKTGDPEKLKELFDPNVKVKIGDRTVHGREELVRQIRHEREQVDHLSFDLEDYKMDGDQMHVVVRFTANRNGRRTEDKQVYNASFHNGQFRIHEMNKK,-0.356
11,DREEAKKIRKNWETNNWDHFAHQADENVRVRVGDKKYHGHHKLLEIMHQIEKRIDHARFDHIDLDGEKLTVDFQMVVNGKKVRYVMFIKVSNGRIKEVNIQFTSEEEERRAQEALR,0.732
12,DREEAKKVAEKAAKYFQNWNVEQLLKLIPDGGKYRIADEERHGPDVIKEVVEKQQRMGLEVEVKEVHAEGDTVHTVLDYRLGDTTATVHIQAKVQGGRIDEVQVDIPEEAQKMLKQG,0.401
13,DREEHASQLFRDMQEVYHNNDPSKFKHLVDENVTRDVGDKTVHGQDEMAREMEKEARRVDKVRFDVRDVKSNNGRIKVRFVVTHNENGRERSSDVTVRFQVSNGRLVIESQTET,-0.206
14,DREEKVREALETLQKAFRTGDPRLFVEQLDPNVRIEVGDKTVHGREQASEWAKRMRDKFDHFEVKIHDMSVQGDKFSVKVSLRQDVNGTDVQRDNHYTIVFHNGRVHVQNINNK,0.644
15,DREEQKKVAKHMDDLVRTGDPREATDLIDPNAKADVGDKQYHGREQLHKLFKEQHERADHADLKSFDAHNGKVEVNVIIQVNGRRHRVIYHADADNGRVKFVSVRSS,-0.164
16,DREEQSEFAKKFLEVVMHGDPKKIRKLADPNAKADVGDKKYHGRESMAKWAHDFRKEVDHIEFKDLKVDGETARLDVVYDVNGHKERQVVVVTAHNGRVKHMQVEEG,-0.18
17,DREERARQLLRELLKALETGDEDTAANQADPNVRVSVGDRTYHGREQYRTFLRKVAERVDHLEVRVDRVTQDNGQIHMDMTVRHEKNGRTHRKEFVIQIDVQGDKNRFVQMRHK,-0.163
18,DREERHRAEQWLNAIKTNNPDDVVEQADKDVRLEVGEERVSGRSELRKEVDKDRKRWDFEIDHVDIKVHNGRIHMTVDVVVRHNGKPDKQEQEYTIEFSNGRARTIVARQNK,-0.229
19,DREERKKIAQTILKIFETGDHKKFKRQIDPNVEVVVGDRTYKGRTQATKAFNEIQEKVDEVDVKTVHYKGDHAIVDAVLVINGRRVTVYFHLTIHNGRVKSISMQFRDEEDERKFRG,0.367
20,DREEVKKIKRLIETNDWRTLAQQADENVEIVYGNKTIHGREQALKFWDILRKHADHIEIKRFDNQGDKVRVNMTVEVNGRHITMNMNIVFHNGRLKEVEIRVTDEKQLKEIEDLVQ,1.59
21,DREEVRQVDQWMKNQQRNNPDELVKLADPNVEFRIGDKTVHGMRRYADDVRRKREHIRLEFKHMKIEDQNGRVILRAKAQREHNGKPETFTMQITFEAHNGRIKKAVITTQK,0.044
22,DREIQHQVTELLEARRRGDEKRLQQNFDPNARMRIGDKEWHGMDTAAEEIAHEQREMRFDVKSIEVRVSGNKVSVDNRYVLEHDGRPHEFVQHDDVEMSNGKFKTAEVKHDG,-0.408
23,DREKEAHELIEHFVRMLETGDEEKFKEMMDKDAKLHVGDKDVHGRDDVDRHLAQEYKQYDHVHFRVKDVKVRGDTIEAQVEVQFDHNGKTDTRTYRFVMRVDNGDVKFQSVSNS,1.45
24,DREKQSEISTMMQKGDPQHLVDLADENAHVEIGNKRVHGRNQIKEYADRFHERVDHYSVRSIEIEGDTVTVTAYFVVNGQNIEWTMQMQNHNGKVKRIRVRFTNEELEKQLDKALS,0.846
25,DRELNQLFRDYVHALKTGDEDELRKQADPNVRIEIGDKEWHGMEKIATEQKKRHDEIRVQIDVKEVSVHNGRVEAELEVVDQQNGRPEKRKVTVTAEYENGKLQHQRYQSDG,-0.442
